This note sets out measurements from patent US20240384250A1, “FIBROBLAST GROWTH FACTOR 23 MODULATING COMPOUNDS” (THE UAB RESEARCH FOUNDATION, priority 2021, published 2024).

The experiment addresses recombinant FGF23 protein (species not stated for the assay). Put plainly: sKL detection assay (sandwich): FGF23 coated, sKL sample, then Fc-FGFR1c, anti-Fc-HRP, A450.

On to “FLAG-tagged soluble klotho (sKL) (receptor)”, for which the fold binding activity against Com.sKL was 7 fold.
